Here are results for three substances from PMC6895269.

Data set [1] has as its system Rtf1 HMD74-184 (histone modification domain) (Saccharomyces cerevisiae). The data set can be described thus: EMSA. The following applies: 50 mM Tris-HCl pH 7.5, 150 mM NaCl, 2 mM arginine, 0.01% CHAPS, 0.01% NP-40, 1 uM BSA, 3 nM nucleosome, 30 min on ice, 4-12% Tris-glycine native PAGE.
For data set [2], the target named is acidic patch mutant X. laevis nucleosome (H2A E61A, E64A, D90A, E92A) (X. laevis). In words: native gel or EMSA; 3 nM nucleosomes with increasing recombinant HMD, 30 min on ice, 50 mM Tris-HCl pH 7.5, 150 mM NaCl, 2 mM arginine, 0.01% CHAPS, 0.01% NP-40, 1 μM BSA; 4-12% native PAGE, SYBR Green; Kd by non-linear least squares regression. (In EMSA bound probe runs differently from free probe, usually more slowly.)

In data set [3] the target is wild-type X. laevis nucleosome (X. laevis). Described as above.

The Kd is the free concentration of one partner at which half of the binding sites on the other are occupied at equilibrium, for simple one-to-one binding.

Regarding “acidic patch mutant X. laevis nucleosome (H2A E61A, E64A, D90A, E92A)”, the Kd in data set [1] (histone H2A E61A;E64A;D90A;E92A) is 250 nM.
Substance wild-type X. laevis nucleosome yielded a dissociation constant (Kd) in data set [1] (wild-type histone octamer) of 100 nM.
With “recombinant HMD_(74-184) (Rtf1 histone modification domain) (from UniProt P53064 74-184) (domain or fragment)”, the figures for the equilibrium dissociation constant (Kd) in data set [2] and in data set [3] were 250 nM and 100 nM, respectively.
